Experimental findings from paper PMC12689640 are described below.

The target in assay [1] is μOR Y326^7.43F-RLuc8 (mouse) (UniProt P42866).
The target of assay [2] is μOR Q124^2.60L-RLuc8 (mouse) (UniProt P42866).
Assay [3] deals with μOR S329^7.46A-RLuc8 (mouse) (UniProt P42866).
The target in assay [4] is μOR W293^6.48A-RLuc8 (mouse) (UniProt P42866).
In assay [5] the target is μOR N86^1.50A-RLuc8 (mouse) (UniProt P42866).

For “Gi heterotrimer of the dissociation assay (Gαi1-RLuc8, Gβ1, Venus-Gγ2) (from UniProt P63096 1-354; P62873 1-340; P59768 1-71) (complex)”, the values for the decrease of Gi dissociation efficacy against wild type (BRET) in assay [1] and in assay [3] were 30% and 40%, respectively. In assay [2], this substance had an efficacy of Gi dissociation against wild type (BRET), stimulated with DAMGO of 60%. Also, the values for the efficacy of Gi activation against wild type (Gi dissociation BRET) in assay [4] and in assay [5] were 35 to 60% and 40 to 60%, respectively.
